Source: patent publication US6410775
Bridge positions count the residues as written; N and C are the ends. Square brackets hold non-standard residues; d marks the D form. Ends that are not written are not given here. NMeL = CN[C@@H](CC(C)C)C(=O)O; Phg = N[C@H](C(=O)O)c1ccccc1; NMeV = CN[C@H](C(=O)O)C(C)C; Orn = NCCC[C@H](N)C(=O)O; ATU = not defined here; Aib = CC(C)(N)C(=O)O; Sar = CNCC(=O)O

B1: 3G3 conformational scan 21: CLGV-pG-GKLC (peptide)
peptide: CLGV[Phg]GKLC
modifications: not fully specified (bridges); printed as CLGV-pG-GKLC; cysteine pairing not given here
B2: 3G3 conformational scan 27: CLG-aiB-LGKLC (peptide)
peptide: CLG[Aib]LGKLC
modifications: not fully specified (bridges); printed as CLG-aiB-LGKLC; cysteine pairing not given here
B3: 3G3 conformational scan 20: CLG-pG-LGKLC (peptide)
peptide: CLG[Phg]LGKLC
modifications: not fully specified (bridges); printed as CLG-pG-LGKLC; cysteine pairing not given here
B4: 3G3 conformational scan 31: CLGVLGK-aiB-C (peptide)
peptide: CLGVLGK[Aib]C
modifications: not fully specified (bridges); printed as CLGVLGK-aiB-C; cysteine pairing not given here
B5: 3G3 conformational scan 25 (alpha Me AA): C-aiB-GVLGKLC (peptide)
peptide: C[Aib]GVLGKLC
modifications: not fully specified (bridges); printed as C-aiB-GVLGKLC; cysteine pairing not given here
B6: 3G3 others 2: Y-ATU-… (peptide)
peptide: {Tyr-ATU}-CLGVLGKLC
modifications: not fully specified (bridges); printed as Y-ATU-CLGVLGKLC; cysteine pairing not given here; reading uncertain
B7: 3G3 conformational scan 26: CL-aiB-VLGKLC (peptide)
peptide: CL[Aib]VLGKLC
modifications: not fully specified (bridges); printed as CL-aiB-VLGKLC; cysteine pairing not given here
B8: 3G3 conformational scan 23: CLGVLG-pG-LC (peptide)
peptide: CLGVLG[Phg]LC
modifications: not fully specified (bridges); printed as CLGVLG-pG-LC; cysteine pairing not given here
B9: 3G3 conformational scan 29: CLGVL-aiB-KLC (peptide)
peptide: CLGVL[Aib]KLC
modifications: not fully specified (bridges); printed as CLGVL-aiB-KLC; cysteine pairing not given here
B10: 3G3 conformational scan 24: CLGVLGK-pG-C (peptide)
peptide: CLGVLGK[Phg]C
modifications: not fully specified (bridges); printed as CLGVLGK-pG-C; cysteine pairing not given here
B11: 3G3 conformational scan 30: CLGVLG-aiB-LC (peptide)
peptide: CLGVLG[Aib]LC
modifications: not fully specified (bridges); printed as CLGVLG-aiB-LC; cysteine pairing not given here

Biological target: ACA-6501 aPL antibody
Test: competitive ELISA I50; antibody not given, ACA-6501 serum on CL/β2-GPI assumed (Ex. 4B)

IC50 [µg/mL]	Binder
360	CLGVLGKAC [3G3 Ala scan 7: …]
40	CLGVLAKLC [3G3 Ala scan 5: … (peptide 925)]
35	B1
500	CLGVLGKGC [3G3 Gly scan 5: …]
160	CPGVLGKLC [3G3 conformational scan 11 (Pro scan): …]
46	XLGVLGKLC (homocysteine (Hc) at position 1; cyclic thioether) [HCTE, LJP 699 (cyclic thioether analog of 3G3, Hc-LGVLGKL-C)]
110	B2
70	CL[Sar]VLGKLC (not fully specified (bridges); cysteine pairing not given here) [3G3 N-Me amino acids 3: CL-nG-VLGKLC]
450	AGPCLGVLGKLCG [3G3 truncation 5: … (as printed)]
550	CLGVL[Sar]KLC (not fully specified (bridges); cysteine pairing not given here) [3G3 N-Me amino acids 6: CLGVL-nG-KLC]
40	CLGVLG[Orn]LC (not fully specified (bridges); cysteine pairing not given here) [3G3 basic amino acid 2: CLGVLG-Or-LC]
70	B3
350	CLGVLPKLC [3G3 conformational scan 15 (Pro scan): …]
170	CLGVLG[dK]LC (not fully specified (bridges); cysteine pairing not given here) [3G3 D amino acids 5: CLGVLG-dK-LC]
130	C[Phg]GVLGKLC (not fully specified (bridges); cysteine pairing not given here) [3G3 conformational scan 18: C-pG-GVLGKLC]
80	XLGVLGKLX (homocysteine (Hc) at positions 1 and 9; cyclic thioether) [HHTE, LJP 703 (cyclic thioether analog of 3G3, Hc-LGVLGKL-Hc)]
160	CLGVLGRLC [3G3 basic amino acid 1: …]
140	CLGVLGK[dL]C (not fully specified (bridges); cysteine pairing not given here) [3G3 D amino acids 6: CLGVLGK-dL-C]
10	CLGVLGKLC (disulfide 1-9 (inferred)) [LJP 690 …]
500	CLGVLGKLC (not fully specified; "TGR resin" printed after the C-terminus) [3G3 others 3: … TGR resin]
160	CLGVLGPLC [3G3 conformational scan 16 (Pro scan): …]
110	CLGVLGKLC (cyclic thioether in place of the disulfide) [CCTE, LJP 698 (cyclic thioether analog of 3G3, C-LGVLGKL-C)]
140	CLGVL[dA]KLC (not fully specified (bridges); cysteine pairing not given here) [3G3 D amino acids 22: CLGVL-dA-KLC]
340	CLPVLGKLC [3G3 conformational scan 12 (Pro scan): …]
60	CIGVLGKLC [3G3 branched aliphatic 1: …]
420	PCLGVLGKLCPG [3G3 truncation 3: …]
310	CGGVLGKLC [3G3 Gly scan 1: …]

IC50 [µg/mL]	Binder
> 470	B4
70	CL[Phg]VLGKLC (not fully specified (bridges); cysteine pairing not given here) [3G3 conformational scan 19: CL-pG-VLGKLC]
370	B5
92	CLGVLGKLX (homocysteine (Hc) at position 9; cyclic thioether) [CHTE, LJP 702 (cyclic thioether analog of 3G3, C-LGVLGKL-Hc)]
170	B6
140	CLGVLG[dL][dL]C (not fully specified (bridges); cysteine pairing not given here) [3G3 D amino acids 21: CLGVLG-dL-dL-C]
200	CAGVLGKLC [3G3 Ala scan 1: …]
120	[dP]CLGVLGKLC (not fully specified (bridges); cysteine pairing not given here) [3G3 D amino acids 1: dP-…]
180	CLGPLGKLC [3G3 conformational scan 13 (Pro scan): …]
180	GPCLGVLGKLCPG [3G3 truncation 2: …]
240	CLGVLGK[NMeL]C (not fully specified (bridges); cysteine pairing not given here) [3G3 N-Me amino acids 8: CLGVLGK-nL-C]
80	B7
130	CVGVLGKLC [3G3 branched aliphatic 2: …]
150	CLGVLG[dK][dL]C (not fully specified (bridges); cysteine pairing not given here) [3G3 D amino acids 18: CLGVLG-dK-dL-C]
230	CLGV[dL]GKLC (not fully specified (bridges); cysteine pairing not given here) [3G3 D amino acids 4: CLGV-dL-GKLC]
230	B8
220	CLG[NMeV]LGKLC (not fully specified (bridges); cysteine pairing not given here) [3G3 N-Me amino acids 4: CLG-nV-LGKLC]
260	CLGALGKLC [3G3 Ala scan 3: …]
300	CLGVLGKLC (not fully specified; C-terminal ATU-Y as printed (ATU linker, then Tyr)) [3G3 others 1: …-ATU-Y]
180	CLGV[NMeL]GKLC (not fully specified (bridges); cysteine pairing not given here) [3G3 N-Me amino acids 5: CLGV-nL-GKLC]
50	CLG[dV][dL]GKLC (not fully specified (bridges); cysteine pairing not given here) [3G3 D amino acids 10: CLG-dV-dL-GKLC]
170	CLAVLGKLC [3G3 Ala scan 2: …]
460	CLGVLGKLCPG [3G3 truncation 4: …]
550	CLGVLGKPC [3G3 conformational scan 17 (Pro scan): …]
110	B9
80	B10
460	B11
